T1: LNX2_1, Q8N448
T1 sequence (Q8N448 228-328, limits assumed, looked up): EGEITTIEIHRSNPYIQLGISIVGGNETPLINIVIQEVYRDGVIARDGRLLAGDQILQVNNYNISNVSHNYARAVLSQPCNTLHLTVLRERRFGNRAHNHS


Experiments:
Assay in all cases: holdup assay
Set-up in all cases: key: below the threshold = too weak to quantify, mostly under pKd 3.1 to 4
Conditions in all cases: plain residues with an end cap or a label only (N-terminal biotin on a linker: ttds)
Q96FS4 = target: Q96FS4
Q9Y3R0 = target: Q9Y3R0
Q9ULJ8 = target: Q9ULJ8
Q12923 = target: Q12923
Q9C0E4 = target: Q9C0E4
O43166 = target: O43166
Q13009 = target: Q13009
Q9H190 = target: Q9H190
O15021 = target: O15021
Q6ZWJ1 = target: Q6ZWJ1
Q96JY6 = target: Q96JY6
O00233 = target: O00233
PTPN13_2, Q12923 = target: PTPN13_2, Q12923
Q9P227 = target: Q9P227
Q8IUC4 = target: Q8IUC4
Q8TDM6 = target: Q8TDM6
Q9UMS6 = target: Q9UMS6
Q92614 = target: Q92614
O00560 = target: O00560
Q9UDY2 = target: Q9UDY2
Q9NR12 = target: Q9NR12
O75970 = target: O75970
Q8TB45 = target: Q8TB45
Q96JB8 = target: Q96JB8
Q9NPB6 = target: Q9NPB6
Q96SB3 = target: Q96SB3
Q13368 = target: Q13368
Q5TCQ9 = target: Q5TCQ9
Q70Z35 = target: Q70Z35
LNX2_1, Q8N448 = target: T1, LNX2_1, Q8N448

PTPN13_2, Q12923, sequence (Q12923 1363-1462): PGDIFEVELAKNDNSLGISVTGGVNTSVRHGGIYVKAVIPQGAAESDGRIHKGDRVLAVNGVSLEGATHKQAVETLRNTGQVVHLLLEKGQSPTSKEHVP

Binder | pKd (Q96FS4) | pKd (Q9Y3R0) | pKd (Q9ULJ8) | pKd (Q12923) | pKd (Q9C0E4) | pKd (O43166) | pKd (Q13009) | pKd (Q9H190) | pKd (O15021) | pKd (Q6ZWJ1) | pKd (Q96JY6) | pKd (O00233) | pKd (PTPN13_2, Q12923) | pKd (Q8IUC4) | pKd (Q8TDM6) | pKd (Q9UMS6) | pKd (Q92614) | pKd (O00560) | pKd (Q9UDY2) | pKd (Q9NR12) | also measured
SHSSKGETAV [FZD7, O75084] | below the threshold | below the threshold | below the threshold | below the threshold | below the threshold | below the threshold | below the threshold | below the threshold | below the threshold | below the threshold | below the threshold | below the threshold | below the threshold | below the threshold | below the threshold | below the threshold | below the threshold | below the threshold | below the threshold | below the threshold | pKd (Q9P227): below the threshold; pKd (O75970): below the threshold; pKd (Q8TB45): below the threshold; pKd (Q96JB8): below the threshold; pKd (Q9NPB6): below the threshold; pKd (Q96SB3): below the threshold; pKd (Q13368): below the threshold; pKd (Q5TCQ9): below the threshold; pKd (Q70Z35): below the threshold
KLVIKTETTV [RASSF6, Q6ZTQ3] | below the threshold | below the threshold | below the threshold | below the threshold | below the threshold | below the threshold | below the threshold | below the threshold | below the threshold | below the threshold | below the threshold | below the threshold | below the threshold | below the threshold | below the threshold | below the threshold | below the threshold | below the threshold | below the threshold | below the threshold | pKd (O75970): below the threshold; pKd (Q8TB45): below the threshold; pKd (Q96JB8): below the threshold; pKd (Q9NPB6): below the threshold; pKd (Q13368): below the threshold; pKd (Q5TCQ9): below the threshold; pKd (Q70Z35): below the threshold
SSIDLWETAL [SLC15A5, A6NIM6] | below the threshold | below the threshold | below the threshold | below the threshold | below the threshold | below the threshold | below the threshold | below the threshold | below the threshold | below the threshold | below the threshold | below the threshold |  | below the threshold | below the threshold | below the threshold | below the threshold | below the threshold | below the threshold | below the threshold | pKd (Q9P227): below the threshold; pKd (O75970): below the threshold; pKd (Q8TB45): below the threshold; pKd (Q96JB8): below the threshold; pKd (Q9NPB6): below the threshold; pKd (Q96SB3): below the threshold; pKd (Q13368): below the threshold; pKd (Q5TCQ9): below the threshold; pKd (Q70Z35): below the threshold
SGGKRKETLV [NET1, Q7Z628] |  |  |  |  |  |  |  |  |  |  |  |  | below the threshold |  |  |  |  |  |  |  | pKd (LNX2_1, Q8N448): below the threshold
PPRQRSETQV [HPV82-E6, Q9IR59] | below the threshold | below the threshold | below the threshold | below the threshold | below the threshold | below the threshold | below the threshold | below the threshold | below the threshold | below the threshold | below the threshold | below the threshold | below the threshold | below the threshold | below the threshold | below the threshold | below the threshold | below the threshold | below the threshold | below the threshold | pKd (Q9P227): below the threshold; pKd (O75970): below the threshold; pKd (Q8TB45): below the threshold; pKd (Q96JB8): below the threshold; pKd (Q9NPB6): below the threshold; pKd (Q96SB3): below the threshold; pKd (Q13368): below the threshold; pKd (Q5TCQ9): below the threshold; pKd (Q70Z35): below the threshold
PSRDRKETSI [RALBP1, Q15311] | below the threshold | below the threshold | below the threshold | below the threshold | below the threshold | below the threshold | below the threshold | below the threshold | below the threshold | below the threshold | below the threshold | below the threshold | 3.79 | below the threshold | below the threshold | below the threshold | below the threshold | below the threshold | below the threshold | below the threshold | pKd (Q9P227): below the threshold; pKd (O75970): below the threshold; pKd (Q8TB45): below the threshold; pKd (Q96JB8): below the threshold; pKd (Q9NPB6): below the threshold; pKd (Q13368): below the threshold; pKd (Q5TCQ9): below the threshold; pKd (Q70Z35): below the threshold

Source: PMC9482650, “Quantitative fragmentomics allow affinity mapping of interactomes” (Nature Communications, 2022)
